From article PMC5503505 (Nature structural & molecular biology, 2017)

B2: Orc2 (natural protein)
chain: MLNGEDFVEHNDILSSPAKSRNVTPKRVDPHGERQLRRIHSSKKNLLERISLVGNERKNTSPDPALKPKTPSKAPRKRGRPRKIQEELTDRIKKDEKDTISSKKKRKLDKDTSGNVNEESKTSNNKQVMEKTGIKEKREREKIQVATTTYEDNVTPQTDDNFVSNSPEPPEPATPSKKSLTTNHDFTSPLKQIIMNNLKEYKDSTSPGKLTLSRNFTPTPVPKNKKLYQTSETKSASSFLDTFEGYFDQRKIVRTNAKSRHTMSMAPDVTREEFSLVSNFFNENFQKRPRQKLFEIQKKMFPQYWFELTQGFSLLFYGVGSKRNFLEEFAIDYLSPKIAYSQLAYENELQQNKPVNSIPCLILNGYNPSCNYRDVFKEITDLLVPAELTRSETKYWGNHVILQIQKMIDFYKNQPLDIKLILVVHNLDGPSIRKNTFQTMLSFLSVIRQIAIVASTDHIYAPLLWDNMKAQNYNFVFHDISNFEPSTVESTFQDVMKMGKSDTSSGAEGAKYVLQSLTVNSKKMYKLLIETQMQNMGNLSANTGPKRGTQRTGVELKLFNHLCAADFIASNEIALRSMLREFIEHKMANITKNNSGMEIIWVPYTYAELEKLLKTVLNTL

Experiments:
[1] = biological target: T1, Mcm7 (S. cerevisiae, UniProt P38132 1-845); assay: cryo-EM structure
T1 sequence: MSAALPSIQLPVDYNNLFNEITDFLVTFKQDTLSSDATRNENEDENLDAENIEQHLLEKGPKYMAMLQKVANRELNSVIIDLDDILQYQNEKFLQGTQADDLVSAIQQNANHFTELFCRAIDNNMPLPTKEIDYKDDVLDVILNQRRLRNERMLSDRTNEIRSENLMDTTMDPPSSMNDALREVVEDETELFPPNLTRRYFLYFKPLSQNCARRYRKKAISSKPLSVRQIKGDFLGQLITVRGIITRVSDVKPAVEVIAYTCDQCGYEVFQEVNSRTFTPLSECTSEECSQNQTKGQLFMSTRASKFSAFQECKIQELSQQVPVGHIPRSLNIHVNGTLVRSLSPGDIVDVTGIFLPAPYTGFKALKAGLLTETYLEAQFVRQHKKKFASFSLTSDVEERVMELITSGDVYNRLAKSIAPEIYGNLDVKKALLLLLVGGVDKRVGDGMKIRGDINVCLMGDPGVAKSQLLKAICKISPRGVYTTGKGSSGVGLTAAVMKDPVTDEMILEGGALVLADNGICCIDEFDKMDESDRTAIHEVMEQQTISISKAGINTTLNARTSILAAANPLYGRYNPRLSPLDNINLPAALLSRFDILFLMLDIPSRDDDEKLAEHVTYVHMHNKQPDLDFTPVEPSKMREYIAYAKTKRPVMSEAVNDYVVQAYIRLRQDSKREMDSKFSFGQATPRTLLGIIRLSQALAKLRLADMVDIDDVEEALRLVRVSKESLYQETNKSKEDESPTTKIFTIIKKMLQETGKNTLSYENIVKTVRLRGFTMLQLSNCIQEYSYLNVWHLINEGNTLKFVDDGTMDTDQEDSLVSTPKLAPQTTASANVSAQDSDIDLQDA

[2] = biological target: T2, Orc1 (S. cerevisiae, UniProt P54784 1-914); assay: cryo-EM structure
T2 sequence: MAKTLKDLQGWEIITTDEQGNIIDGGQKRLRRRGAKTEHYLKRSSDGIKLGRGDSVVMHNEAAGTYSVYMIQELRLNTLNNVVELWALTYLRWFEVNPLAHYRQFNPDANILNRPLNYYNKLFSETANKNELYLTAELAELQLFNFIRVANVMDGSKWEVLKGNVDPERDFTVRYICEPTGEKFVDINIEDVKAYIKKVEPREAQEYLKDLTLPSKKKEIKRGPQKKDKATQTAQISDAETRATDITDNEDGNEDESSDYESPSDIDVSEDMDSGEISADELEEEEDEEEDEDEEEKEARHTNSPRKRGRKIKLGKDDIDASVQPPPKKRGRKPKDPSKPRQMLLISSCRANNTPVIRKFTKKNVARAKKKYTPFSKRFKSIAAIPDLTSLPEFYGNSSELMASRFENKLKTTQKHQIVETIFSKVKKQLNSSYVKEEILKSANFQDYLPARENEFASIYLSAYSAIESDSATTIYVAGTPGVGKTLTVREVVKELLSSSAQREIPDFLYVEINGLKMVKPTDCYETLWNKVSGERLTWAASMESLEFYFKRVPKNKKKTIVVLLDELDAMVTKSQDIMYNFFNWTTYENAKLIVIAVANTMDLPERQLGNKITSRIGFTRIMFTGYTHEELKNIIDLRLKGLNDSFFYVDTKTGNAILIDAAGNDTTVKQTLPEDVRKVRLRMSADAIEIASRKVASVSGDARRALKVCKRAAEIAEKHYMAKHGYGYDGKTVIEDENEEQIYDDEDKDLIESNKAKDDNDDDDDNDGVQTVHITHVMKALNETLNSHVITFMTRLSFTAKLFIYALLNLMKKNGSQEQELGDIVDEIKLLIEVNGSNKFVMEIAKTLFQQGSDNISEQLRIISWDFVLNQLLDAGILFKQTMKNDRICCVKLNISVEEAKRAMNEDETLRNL

[3] = biological target: Mcm3 (S. cerevisiae, UniProt P24279 1-971); assay: cryo-EM structure
[4] = biological target: T3, Mcm5 (S. cerevisiae, UniProt P29496 1-775); assay: cross-linking
T3 sequence: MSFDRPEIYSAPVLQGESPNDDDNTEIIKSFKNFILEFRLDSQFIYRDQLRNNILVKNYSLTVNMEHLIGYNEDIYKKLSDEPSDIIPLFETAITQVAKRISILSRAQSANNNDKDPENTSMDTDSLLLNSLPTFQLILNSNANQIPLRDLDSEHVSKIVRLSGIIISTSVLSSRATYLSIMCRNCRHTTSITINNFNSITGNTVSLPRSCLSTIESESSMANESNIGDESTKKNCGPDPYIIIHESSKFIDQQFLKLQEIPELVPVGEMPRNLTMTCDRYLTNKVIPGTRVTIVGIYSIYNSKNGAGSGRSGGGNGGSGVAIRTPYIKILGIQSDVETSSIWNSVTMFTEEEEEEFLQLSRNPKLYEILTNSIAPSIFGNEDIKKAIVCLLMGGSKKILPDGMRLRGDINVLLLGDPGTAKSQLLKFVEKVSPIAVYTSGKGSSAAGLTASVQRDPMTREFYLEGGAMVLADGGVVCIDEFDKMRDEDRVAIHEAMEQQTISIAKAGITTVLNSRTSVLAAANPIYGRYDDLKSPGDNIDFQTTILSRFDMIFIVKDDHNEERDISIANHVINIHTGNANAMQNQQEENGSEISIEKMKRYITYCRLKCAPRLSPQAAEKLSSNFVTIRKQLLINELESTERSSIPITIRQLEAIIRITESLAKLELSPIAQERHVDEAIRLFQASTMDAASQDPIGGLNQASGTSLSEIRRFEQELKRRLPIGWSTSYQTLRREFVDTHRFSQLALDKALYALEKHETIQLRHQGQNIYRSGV

[5] = biological target: T4, Cdt1 (S. cerevisiae, UniProt P47112 1-604); assay: cross-linking
T4 sequence: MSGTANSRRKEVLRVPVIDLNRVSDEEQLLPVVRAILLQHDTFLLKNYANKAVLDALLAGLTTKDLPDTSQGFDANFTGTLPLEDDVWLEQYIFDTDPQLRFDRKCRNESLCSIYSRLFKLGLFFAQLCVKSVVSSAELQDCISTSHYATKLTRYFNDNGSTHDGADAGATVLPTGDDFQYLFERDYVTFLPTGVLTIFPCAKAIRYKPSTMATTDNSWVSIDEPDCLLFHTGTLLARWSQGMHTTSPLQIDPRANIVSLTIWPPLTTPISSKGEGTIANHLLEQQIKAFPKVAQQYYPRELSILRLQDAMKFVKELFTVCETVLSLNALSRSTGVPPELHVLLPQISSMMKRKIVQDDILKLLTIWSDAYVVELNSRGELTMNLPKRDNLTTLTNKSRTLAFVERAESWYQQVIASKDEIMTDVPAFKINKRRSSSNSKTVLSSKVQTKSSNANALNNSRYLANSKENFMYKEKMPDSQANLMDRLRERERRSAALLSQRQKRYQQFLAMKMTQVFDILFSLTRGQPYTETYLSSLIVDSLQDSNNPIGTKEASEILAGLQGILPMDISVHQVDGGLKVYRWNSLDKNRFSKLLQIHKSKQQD

[6] = biological target: B2; assay: cross-linking

Mcm3, sequence (P24279 whole entry): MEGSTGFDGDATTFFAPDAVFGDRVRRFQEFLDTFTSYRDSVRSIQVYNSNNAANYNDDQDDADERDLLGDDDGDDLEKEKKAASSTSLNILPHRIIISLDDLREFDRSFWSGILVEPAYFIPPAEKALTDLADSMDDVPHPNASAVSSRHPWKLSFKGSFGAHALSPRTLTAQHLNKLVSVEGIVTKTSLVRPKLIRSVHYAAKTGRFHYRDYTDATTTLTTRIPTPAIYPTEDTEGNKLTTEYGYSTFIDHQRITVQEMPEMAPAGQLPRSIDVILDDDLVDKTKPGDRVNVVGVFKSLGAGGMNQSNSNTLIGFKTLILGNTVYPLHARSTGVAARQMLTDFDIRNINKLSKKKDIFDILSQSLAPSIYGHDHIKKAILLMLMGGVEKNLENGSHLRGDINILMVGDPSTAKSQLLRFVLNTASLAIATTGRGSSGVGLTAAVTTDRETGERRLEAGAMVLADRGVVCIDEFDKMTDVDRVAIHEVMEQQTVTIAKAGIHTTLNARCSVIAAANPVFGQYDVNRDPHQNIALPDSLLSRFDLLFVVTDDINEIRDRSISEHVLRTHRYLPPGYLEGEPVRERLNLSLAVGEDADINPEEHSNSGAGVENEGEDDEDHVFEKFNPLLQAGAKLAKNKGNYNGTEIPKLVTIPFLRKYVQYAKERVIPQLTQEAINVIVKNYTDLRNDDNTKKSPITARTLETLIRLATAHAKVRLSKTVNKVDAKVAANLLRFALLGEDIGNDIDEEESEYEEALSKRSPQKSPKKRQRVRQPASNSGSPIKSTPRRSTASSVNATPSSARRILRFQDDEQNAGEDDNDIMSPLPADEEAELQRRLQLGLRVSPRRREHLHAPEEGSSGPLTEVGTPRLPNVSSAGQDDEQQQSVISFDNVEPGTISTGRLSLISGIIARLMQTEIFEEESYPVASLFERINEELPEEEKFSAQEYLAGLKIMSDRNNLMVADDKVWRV

B1: Cdc6 (natural protein)
chain: MSAIPITPTKRIRRNLFDDAPATPPRPLKRKKLQFTDVTPESSPEKLQFGSQSIFLRTKALLQKSSELVNLNSSDGALPARTAEYEQVMNFLAKAISEHRSDSLYITGPPGTGKTAQLDMIIRQKFQSLPLSLSTPRSKDVLRHTNPNLQNLSWFELPDGRLESVAVTSINCISLGEPSSIFQKIFDSFQDLNGPTLQIKNMQHLQKFLEPYHKKTTFVVVLDEMDRLLHANTSETQSVRTILELFLLAKLPTVSFVLIGMANSLDMKDRFLSRLNLDRGLLPQTIVFQPYTAEQMYEIVIQKMSSLPTIIFQPMAIKFAAKKCAGNTGDLRKLFDVLRGSIEIYELEKRFLLSPTRGSLNSAQVPLTPTTSPVKKSYPEPQGKIGLNYIAKVFSKFVNNNSTRTRIAKLNIQQKLILCTIIQSLKLNSDATIDESFDHYIKAITKTDTLAPLQRNEFLEICTILETCGLVSIKKTKCKGKTKRFVDKIDVDLDMREFYDEMTKISILKPFLH
Does B1 bind [1]?
Result: binds

Does B1 bind [2]?
Result: binds

What does the source list for B2?
binding result [3]: binds; binding result [4]: binds

B3: Orc6 (natural protein)
chain: MSMQQVQHCVAEVLRLDPQEKPDWSSGYLKKLTNATSILYNTSLNKVMLKQDEEVARCHICAYIASQKMNEKHMPDLCYYIDSIPLEPKKAKHLMNLFRQSLSNSSPMKQFAWTPSPKKNKRSPVKNGGRFTSSDPKELRNQLFGTPTKVRKSQNNDSFVIPELPPMQTNESPSITRRKLAFEEDEDEDEEEPGNDGLSLKSHSNKSITGTRNVDSDEYENHESDPTSEEEPLGVQESRSGRTKQNKAVGKPQSELKTAKALRKRGRIPNSLLVKKYCKMTTEEIIRLCNDFELPREVAYKIVDEYNINASRLVCPWQLVCGLVLNCTFIVFNERRRKDPRIDHFIVSKMCSLMLTSKVDDVIECVKLVKELIIGEKWFRDLQIRYDDFDGIRYDEIIFRKLGSMLQTTNILVTDDQYNIWKKRIEMDLALTEPL
Does B3 bind [5]?
Result: binds

Does B3 bind [6]?
Result: binds
